US8951961B2, “Structural and mechanistic basis for novel compound biosynthesis using 4-electron hexose oxidase” (Academia Sinica, priority 2009, dated 2015)

Test system: Dbv29
Experiment: Relative enzymatic activities of Dbv29 mutants
Type: biochemical, Nonomuraea sp. ATCC39727
Settings: for Relative activity: relative to WT

Row | Molecule | catalytic activity | activity relative to WT [%] | Relative activity
1 | W399A (protein) MTGGTGADAASAGASSTRPELRGERCLPPAGPVKVTPDDPRYLNLKLRGANSRFNGEPDYIHLVGSTQQVADAVEETVRTGKRVAVRSGGHCFEDFVDNPDVKVIIDMSLLTEIAYDPSMNAFLIEPGNTLSEVYEKLYLGWNVTIPGGVCGGVGVGGHICGGGYGPLSRQFGSVVDYLYAVEVVVVNKQGKARVIVATRERDDPHHDLWWAHTGGGGGNFGVVTKYWMRVPEDVGRNPERLLPKPPATLLTSTVTFDWAGMTEAAFSRLLRNHGEWYERNSGPDSPYTGLWSQLMIGNEVPGMGESGFMMPIQVDATRPDARRLLDAHIEAVIDGVPPAEVPEPIEQRWLASTPGRGGRGPASKTKAGYLRKRLTDRQIQAVYENMTHMDGIDYGAVALIGYGGKVNTVDPAATALPQRDAILKVNYITGWANPGNEAKHLTWVRKLYADVYAETGGVPVPNDVSDGAYINYPDSDLADPGLNTSGVPWHDLYYKGNHPRLRKVKAAYDPRNHFHHALSIRP | no product was produced | – | –
2 | C151A (protein) MTGGTGADAASAGASSTRPELRGERCLPPAGPVKVTPDDPRYLNLKLRGANSRFNGEPDYIHLVGSTQQVADAVEETVRTGKRVAVRSGGHCFEDFVDNPDVKVIIDMSLLTEIAYDPSMNAFLIEPGNTLSEVYEKLYLGWNVTIPGGVAGGVGVGGHICGGGYGPLSRQFGSVVDYLYAVEVVVVNKQGKARVIVATRERDDPHHDLWWAHTGGGGGNFGVVTKYWMRVPEDVGRNPERLLPKPPATLLTSTVTFDWAGMTEAAFSRLLRNHGEWYERNSGPDSPYTGLWSQLMIGNEVPGMGESGFMMPIQVDATRPDARRLLDAHIEAVIDGVPPAEVPEPIEQRWLASTPGRGGRGPASKTKAGYLRKRLTDRQIQAVYENMTHMDGIDYGAVWLIGYGGKVNTVDPAATALPQRDAILKVNYITGWANPGNEAKHLTWVRKLYADVYAETGGVPVPNDVSDGAYINYPDSDLADPGLNTSGVPWHDLYYKGNHPRLRKVKAAYDPRNHFHHALSIRP | – | 23 | 0.23
3 | H91A (protein) MTGGTGADAASAGASSTRPELRGERCLPPAGPVKVTPDDPRYLNLKLRGANSRFNGEPDYIHLVGSTQQVADAVEETVRTGKRVAVRSGGACFEDFVDNPDVKVIIDMSLLTEIAYDPSMNAFLIEPGNTLSEVYEKLYLGWNVTIPGGVCGGVGVGGHICGGGYGPLSRQFGSVVDYLYAVEVVVVNKQGKARVIVATRERDDPHHDLWWAHTGGGGGNFGVVTKYWMRVPEDVGRNPERLLPKPPATLLTSTVTFDWAGMTEAAFSRLLRNHGEWYERNSGPDSPYTGLWSQLMIGNEVPGMGESGFMMPIQVDATRPDARRLLDAHIEAVIDGVPPAEVPEPIEQRWLASTPGRGGRGPASKTKAGYLRKRLTDRQIQAVYENMTHMDGIDYGAVWLIGYGGKVNTVDPAATALPQRDAILKVNYITGWANPGNEAKHLTWVRKLYADVYAETGGVPVPNDVSDGAYINYPDSDLADPGLNTSGVPWHDLYYKGNHPRLRKVKAAYDPRNHFHHALSIRP | – | 11 | 0.11
4 | W399F (protein) MTGGTGADAASAGASSTRPELRGERCLPPAGPVKVTPDDPRYLNLKLRGANSRFNGEPDYIHLVGSTQQVADAVEETVRTGKRVAVRSGGHCFEDFVDNPDVKVIIDMSLLTEIAYDPSMNAFLIEPGNTLSEVYEKLYLGWNVTIPGGVCGGVGVGGHICGGGYGPLSRQFGSVVDYLYAVEVVVVNKQGKARVIVATRERDDPHHDLWWAHTGGGGGNFGVVTKYWMRVPEDVGRNPERLLPKPPATLLTSTVTFDWAGMTEAAFSRLLRNHGEWYERNSGPDSPYTGLWSQLMIGNEVPGMGESGFMMPIQVDATRPDARRLLDAHIEAVIDGVPPAEVPEPIEQRWLASTPGRGGRGPASKTKAGYLRKRLTDRQIQAVYENMTHMDGIDYGAVFLIGYGGKVNTVDPAATALPQRDAILKVNYITGWANPGNEAKHLTWVRKLYADVYAETGGVPVPNDVSDGAYINYPDSDLADPGLNTSGVPWHDLYYKGNHPRLRKVKAAYDPRNHFHHALSIRP | – | 15 | 0.16
5 | T366A (protein) MTGGTGADAASAGASSTRPELRGERCLPPAGPVKVTPDDPRYLNLKLRGANSRFNGEPDYIHLVGSTQQVADAVEETVRTGKRVAVRSGGHCFEDFVDNPDVKVIIDMSLLTEIAYDPSMNAFLIEPGNTLSEVYEKLYLGWNVTIPGGVCGGVGVGGHICGGGYGPLSRQFGSVVDYLYAVEVVVVNKQGKARVIVATRERDDPHHDLWWAHTGGGGGNFGVVTKYWMRVPEDVGRNPERLLPKPPATLLTSTVTFDWAGMTEAAFSRLLRNHGEWYERNSGPDSPYTGLWSQLMIGNEVPGMGESGFMMPIQVDATRPDARRLLDAHIEAVIDGVPPAEVPEPIEQRWLASTPGRGGRGPASKAKAGYLRKRLTDRQIQAVYENMTHMDGIDYGAVWLIGYGGKVNTVDPAATALPQRDAILKVNYITGWANPGNEAKHLTWVRKLYADVYAETGGVPVPNDVSDGAYINYPDSDLADPGLNTSGVPWHDLYYKGNHPRLRKVKAAYDPRNHFHHALSIRP | – | 11 | 0.11
6 | I401A (protein) MTGGTGADAASAGASSTRPELRGERCLPPAGPVKVTPDDPRYLNLKLRGANSRFNGEPDYIHLVGSTQQVADAVEETVRTGKRVAVRSGGHCFEDFVDNPDVKVIIDMSLLTEIAYDPSMNAFLIEPGNTLSEVYEKLYLGWNVTIPGGVCGGVGVGGHICGGGYGPLSRQFGSVVDYLYAVEVVVVNKQGKARVIVATRERDDPHHDLWWAHTGGGGGNFGVVTKYWMRVPEDVGRNPERLLPKPPATLLTSTVTFDWAGMTEAAFSRLLRNHGEWYERNSGPDSPYTGLWSQLMIGNEVPGMGESGFMMPIQVDATRPDARRLLDAHIEAVIDGVPPAEVPEPIEQRWLASTPGRGGRGPASKTKAGYLRKRLTDRQIQAVYENMTHMDGIDYGAVWLAGYGGKVNTVDPAATALPQRDAILKVNYITGWANPGNEAKHLTWVRKLYADVYAETGGVPVPNDVSDGAYINYPDSDLADPGLNTSGVPWHDLYYKGNHPRLRKVKAAYDPRNHFHHALSIRP | – | – | 0.09
7 | C161A (protein) MTGGTGADAASAGASSTRPELRGERCLPPAGPVKVTPDDPRYLNLKLRGANSRFNGEPDYIHLVGSTQQVADAVEETVRTGKRVAVRSGGHCFEDFVDNPDVKVIIDMSLLTEIAYDPSMNAFLIEPGNTLSEVYEKLYLGWNVTIPGGVCGGVGVGGHIAGGGYGPLSRQFGSVVDYLYAVEVVVVNKQGKARVIVATRERDDPHHDLWWAHTGGGGGNFGVVTKYWMRVPEDVGRNPERLLPKPPATLLTSTVTFDWAGMTEAAFSRLLRNHGEWYERNSGPDSPYTGLWSQLMIGNEVPGMGESGFMMPIQVDATRPDARRLLDAHIEAVIDGVPPAEVPEPIEQRWLASTPGRGGRGPASKTKAGYLRKRLTDRQIQAVYENMTHMDGIDYGAVWLIGYGGKVNTVDPAATALPQRDAILKVNYITGWANPGNEAKHLTWVRKLYADVYAETGGVPVPNDVSDGAYINYPDSDLADPGLNTSGVPWHDLYYKGNHPRLRKVKAAYDPRNHFHHALSIRP | – | – | 0.84
8 | H91A/C151A (protein) MTGGTGADAASAGASSTRPELRGERCLPPAGPVKVTPDDPRYLNLKLRGANSRFNGEPDYIHLVGSTQQVADAVEETVRTGKRVAVRSGGACFEDFVDNPDVKVIIDMSLLTEIAYDPSMNAFLIEPGNTLSEVYEKLYLGWNVTIPGGVAGGVGVGGHICGGGYGPLSRQFGSVVDYLYAVEVVVVNKQGKARVIVATRERDDPHHDLWWAHTGGGGGNFGVVTKYWMRVPEDVGRNPERLLPKPPATLLTSTVTFDWAGMTEAAFSRLLRNHGEWYERNSGPDSPYTGLWSQLMIGNEVPGMGESGFMMPIQVDATRPDARRLLDAHIEAVIDGVPPAEVPEPIEQRWLASTPGRGGRGPASKTKAGYLRKRLTDRQIQAVYENMTHMDGIDYGAVWLIGYGGKVNTVDPAATALPQRDAILKVNYITGWANPGNEAKHLTWVRKLYADVYAETGGVPVPNDVSDGAYINYPDSDLADPGLNTSGVPWHDLYYKGNHPRLRKVKAAYDPRNHFHHALSIRP | – | 5 | 0.05
9 | Y165F/Y473F (protein) MTGGTGADAASAGASSTRPELRGERCLPPAGPVKVTPDDPRYLNLKLRGANSRFNGEPDYIHLVGSTQQVADAVEETVRTGKRVAVRSGGHCFEDFVDNPDVKVIIDMSLLTEIAYDPSMNAFLIEPGNTLSEVYEKLYLGWNVTIPGGVCGGVGVGGHICGGGFGPLSRQFGSVVDYLYAVEVVVVNKQGKARVIVATRERDDPHHDLWWAHTGGGGGNFGVVTKYWMRVPEDVGRNPERLLPKPPATLLTSTVTFDWAGMTEAAFSRLLRNHGEWYERNSGPDSPYTGLWSQLMIGNEVPGMGESGFMMPIQVDATRPDARRLLDAHIEAVIDGVPPAEVPEPIEQRWLASTPGRGGRGPASKTKAGYLRKRLTDRQIQAVYENMTHMDGIDYGAVWLIGYGGKVNTVDPAATALPQRDAILKVNYITGWANPGNEAKHLTWVRKLYADVYAETGGVPVPNDVSDGAYINFPDSDLADPGLNTSGVPWHDLYYKGNHPRLRKVKAAYDPRNHFHHALSIRP | total loss of catalytic activity | – | –
10 | T366E (protein) MTGGTGADAASAGASSTRPELRGERCLPPAGPVKVTPDDPRYLNLKLRGANSRFNGEPDYIHLVGSTQQVADAVEETVRTGKRVAVRSGGHCFEDFVDNPDVKVIIDMSLLTEIAYDPSMNAFLIEPGNTLSEVYEKLYLGWNVTIPGGVCGGVGVGGHICGGGYGPLSRQFGSVVDYLYAVEVVVVNKQGKARVIVATRERDDPHHDLWWAHTGGGGGNFGVVTKYWMRVPEDVGRNPERLLPKPPATLLTSTVTFDWAGMTEAAFSRLLRNHGEWYERNSGPDSPYTGLWSQLMIGNEVPGMGESGFMMPIQVDATRPDARRLLDAHIEAVIDGVPPAEVPEPIEQRWLASTPGRGGRGPASKEKAGYLRKRLTDRQIQAVYENMTHMDGIDYGAVWLIGYGGKVNTVDPAATALPQRDAILKVNYITGWANPGNEAKHLTWVRKLYADVYAETGGVPVPNDVSDGAYINYPDSDLADPGLNTSGVPWHDLYYKGNHPRLRKVKAAYDPRNHFHHALSIRP | – | 5 | 0.05
